According to IntAct's records for PubMed 29039417:

B1: BBSome complex member BBS1 (Homo sapiens), Q8NFJ9 (parent)
chain: MAAASSSDSDACGAESNEANSKWLDAHYDPMANIHTFSACLALADLHGDGEYKLVVGDLGPGGQQPRLKVLKGPLVMTESPLPALPAAAATFLMEQHEPRTPALALASGPCVYVYKNLRPYFKFSLPQLPPNPLEQDLWNQAKEDRIDPLTLKEMLESIRETAEEPLSIQSLRFLQLELSEMEAFVNQHKSNSIKRQTVITTMTTLKKNLADEDAVSCLVLGTENKELLVLDPEAFTILAKMSLPSVPVFLEVSGQFDVEFRLAAACRNGNIYILRRDSKHPKYCIELSAQPVGLIRVHKVLVVGSTQDSLHGFTHKGKKLWTVQMPAAILTMNLLEQHSRGLQAVMAGLANGEVRIYRDKALLNVIHTPDAVTSLCFGRYGREDNTLIMTTRGGGLIIKILKRTAVFVEGGSEVGPPPAQAMKLNVPRKTRLYVDQTLREREAGTAMHRAFQTDLYLLRLRAARAYLQALESSLSPLSTTAREPLKLHAVVQGLGPTFKLTLHLQNTSTTRPVLGLLVCFLYNEALYSLPRAFFKVPLLVPGLNYPLETFVESLSNKGISDIIKVLVLREGQSAPLLSAHVNMPGSEGLAAA
partner: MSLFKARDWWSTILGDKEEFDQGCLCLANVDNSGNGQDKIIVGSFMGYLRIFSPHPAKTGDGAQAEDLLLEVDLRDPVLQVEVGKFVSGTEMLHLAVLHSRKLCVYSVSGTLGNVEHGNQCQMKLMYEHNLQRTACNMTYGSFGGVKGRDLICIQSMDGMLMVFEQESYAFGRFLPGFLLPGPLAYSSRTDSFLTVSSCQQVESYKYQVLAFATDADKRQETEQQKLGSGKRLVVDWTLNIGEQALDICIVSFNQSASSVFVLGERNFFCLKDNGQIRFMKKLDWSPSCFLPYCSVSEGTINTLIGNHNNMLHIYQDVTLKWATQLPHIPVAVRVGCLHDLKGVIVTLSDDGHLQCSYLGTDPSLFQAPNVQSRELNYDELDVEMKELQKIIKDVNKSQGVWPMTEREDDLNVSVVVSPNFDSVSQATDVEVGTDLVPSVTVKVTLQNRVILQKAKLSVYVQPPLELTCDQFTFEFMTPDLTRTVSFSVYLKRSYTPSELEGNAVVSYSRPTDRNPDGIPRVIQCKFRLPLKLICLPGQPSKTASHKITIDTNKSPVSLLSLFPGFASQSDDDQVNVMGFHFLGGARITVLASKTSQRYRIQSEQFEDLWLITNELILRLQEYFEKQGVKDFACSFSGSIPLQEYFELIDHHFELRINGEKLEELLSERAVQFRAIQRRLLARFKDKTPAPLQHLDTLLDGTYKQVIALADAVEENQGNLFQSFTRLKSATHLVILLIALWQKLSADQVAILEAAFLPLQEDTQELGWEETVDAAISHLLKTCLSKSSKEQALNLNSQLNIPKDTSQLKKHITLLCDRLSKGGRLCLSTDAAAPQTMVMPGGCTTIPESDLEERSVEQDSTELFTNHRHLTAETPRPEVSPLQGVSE

Variants of: B1
Settings: with pthb1_human BBS9, Q3SYG4

effect of a mutation on the interaction | Variant
disrupting interaction strength | MAAASSSDSDACGAESNEANSKWLDAHYDPMANIHTFSACLALADLHGDGEYKLVVGDLGPGGQQPRLKVLKGPLVMTESPLPALPAAAATFLMEQHEPRTPALALASGPCVYVYKNLRPYFKFSLPQLPPNPLEQDLWNQAKEDRIDPLTLKEMLESIRETAEEPLSIQSLRFLQLELSEMEAFVNQHKSNSIKRQTVITTMTTLKKNLADEDAVSCLVLGTENKELLVLDPEAFTILAKMSLPSVPVFLEVSGQFDVEFRLAAACRNGNIYILRRDSKHPKYCIELSAQPVGLIRVHKVLVVGSTQDSLHGFTHKGKKLWTVQMPAAILTMNLLEQHSRGLQAVMAGLANGEVRIYRDKALLNVIHTPDAVTSLCFGRYGREDNTLIMTTRGGGLIIKILKRTAVFVEGGSEVGPPPAQAMKLNVPRKTRLYVDQTLREREAGTAMHRAFQTDLYLLRLRAARAYLQALESSLSPLSTTAREPLKLHAVVQGLGPTFKLTLHLQNTSTTRPVLGLLVCFLYNEALYSRPRAFFKVPLLVPGLNYPLETFVESLSNKGISDIIKVLVLREGQSAPLLSAHVNMPGSEGLAAA [L530R]
disrupting interaction strength | MAAASSSDSDACGAESNEANSKWLDAHYDPMANIHTFSACLALADLHGDGEYKLVVGDLGPGGQQPRLKVLKGPLVMTESPLPALPAAAATFLMEQHEPRTPALALASGPCVYVYKNLRPYFKFSLPQLPPNPLEQDLWNQAKEDRIDPLTLKEMLESIRETAEEPLSIQSLRFLQLELSEMEAFVNQHKSNSIKRQTVITTMTTLKKNLADEDAVSCLVLGTENKELLVLDPEAFTILAKMSLPSVPVFLEVSGQFDVEFRLAAACRNGNIYILRRDSKHPKYCIELSAQPVGLIRVHKVLVVGSTQDSLHGFTHKGKKLWTVQMPAAILTMNLLEQHSRGLQAVMAGLANGEVRIYRDKALLNVIHTPDAVTSLCFGRYGREDNTLIMTTRGGGLIIKILKRTAVFVEGGSEVGPPPAQAMKLNVPRKTRLYVDQTLREREAGTAMHRAFQTDLYLLRLRAARAYLQALESSLSPLSTTAREPLKLHAVVQGLGPTFKLTLHLQNTSTTRPVLGLLVCFLYNEALYSQPRAFFKVPLLVPGLNYPLETFVESLSNKGISDIIKVLVLREGQSAPLLSAHVNMPGSEGLAAA [L530Q]
disrupting interaction strength | MAAASSSDSDACGAESNEANSKWLDAHYDPMANIHTFSACLALADLHGDGEYKLVVGDLGPGGQQPRLKVLKGPLVMTESPLPALPAAAATFLMEQHEPRTPALALASGPCVYVYKNLRPYFKFSLPQLPPNPLEQDLWNQAKEDRIDPLTLKEMLESIRETAEEPLSIQSLRFLQLELSEMEAFVNQHKSNSIKRQTVITTMTTLKKNLADEDAVSCLVLGTENKELLVLDPEAFTILAKMSLPSVPVFLEVSGQFDVEFRLAAACRNGNIYILRRDSKHPKYCIELSAQPVGLIRVHKVLVVGSTQDSLHGFTHKGKKLWTVQMPAAILTMNLLEQHSRGLQAVMAGLANGEVRIYRDKALLNVIHTPDAVTSLCFGRYGREDNTLIMTTRGGGLIIKILKRTAVFVEGGSEVGPPPAQAMKLNVPRKTRLYVDQTLREREAGTAMHRAFQTDLYLLRLRAARAYLQALESSLSPLSTTAREPLKLHAVVQGLGPTFKLTLHLQNTSTTRPVLGLLVCFLYNEALYSEPRAFFKVPLLVPGLNYPLETFVESLSNKGISDIIKVLVLREGQSAPLLSAHVNMPGSEGLAAA [L530E]
disrupting interaction strength | MAAASSSDSDACGAESNEANSKWLDAHYDPMANIHTFSACLALADLHGDGEYKLVVGDLGPGGQQPRLKVLKGPLVMTESPLPALPAAAATFLMEQHEPRTPALALASGPCVYVYKNLRPYFKFSLPQLPPNPLEQDLWNQAKEDRIDPLTLKEMLESIRETAEEPLSIQSLRFLQLELSEMEAFVNQHKSNSIKRQTVITTMTTLKKNLADEDAVSCLVLGTENKELLVLDPEAFTILAKMSLPSVPVFLEVSGQFDVEFRLAAACRNGNIYILRRDSKHPKYCIELSAQPVGLIRVHKVLVVGSTQDSLHGFTHKGKKLWTVQMPAAILTMNLLEQHSRGLQAVMAGLANGEVRIYRDKALLNVIHTPDAVTSLCFGRYGREDNTLIMTTRGGGLIIKILKRTAVFVEGGSEVGPPPAQAMKLNVPRKTRLYVDQTLREREAGTAMHRAFQTDLYLLRLRAARAYLQALESSLSPLSTTAREPLKLHAVVQGLGPTFKLTLHLQNTSTTRPVLGLLVCFLYNEALYSKPRAFFKVPLLVPGLNYPLETFVESLSNKGISDIIKVLVLREGQSAPLLSAHVNMPGSEGLAAA [L530K]
disrupting interaction strength | MAAASSSDSDACGAESNEANSKWLDAHYDPMANIHTFSACLALADLHGDGEYKLVVGDLGPGGQQPRLKVLKGPLVMTESPLPALPAAAATFLMEQHEPRTPALALASGPCVYVYKNLRPYFKFSLPQLPPNPLEQDLWNQAKEDRIDPLTLKEMLESIRETAEEPLSIQSLRFLQLELSEMEAFVNQHKSNSIKRQTVITTMTTLKKNLADEDAVSCLVLGTENKELLVLDPEAFTILAKMSLPSVPVFLEVSGQFDVEFRLAAACRNGNIYILRRDSKHPKYCIELSAQPVGLIRVHKVLVVGSTQDSLHGFTHKGKKLWTVQMPAAILTMNLLEQHSRGLQAVMAGLANGEVRIYRDKALLNVIHTPDAVTSLCFGRYGREDNTLIMTTRGGGLIIKILKRTAVFVEGGSEVGPPPAQAMKLNVPRKTRLYVDQTLREREAGTAMHRAFQTDLYLLRLRAARAYLQALESSLSPLSTTAREPLKLHAVVQGLGPTFKLTLHLQNTSTTRPVLGLLVCFLYNEALYSNPRAFFKVPLLVPGLNYPLETFVESLSNKGISDIIKVLVLREGQSAPLLSAHVNMPGSEGLAAA [L530N]
